In patent US20250250357A1 (NANJING ZAIMING PHARMACEUTICAL, published 2025):

T1: human MSLN-R1-his protein (human, UniProt Q13421 296-390)
T1 construct: Region 1 of human MSLN, His-tagged; also called human MSLN-R1 protein; hMSLN-R1-his; not shown: His tag
T1 chain: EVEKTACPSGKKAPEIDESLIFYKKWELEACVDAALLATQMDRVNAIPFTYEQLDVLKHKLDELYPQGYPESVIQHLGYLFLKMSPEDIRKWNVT


Key:
[1] = target: T1, human MSLN-R1-his protein; assay: ELISA, coated MSLN-R1;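 also: serially diluted chimeric antibodies bound to the coated, BSA-blocked plate for 2 h at 37 °C, with TMB colour read after acid stop and a negative control antibody alongside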
Description: The plate was sealed with a plastic film and incubated at 4° C. overnight. The next day, the plate was washed twice with PBST, and a blocking buffer [PBS+2% (w/w) BSA] was added for blocking at room temperature for 2 h. The blocking buffer was discarded, and a chimeric antibody or negative control antibody serially diluted from 100 nM was added at 50 μL/well. After incubation at 37° C. for 2 h, the plate was washed 3 times with PBST. […] After incubation at 37° C. for 2 h, the plate was washed 5 times with PBST. A TMB substrate was added at 50 μL/well for incubation at room temperature for 5-10 min, and then a stop solution (1.0 N HCl) was added at 50 μL/well.

[2] = target: T2, human MSLN-FL-his protein (human, UniProt Q13421 296-580); assay: ELISA, coated MSLN full-length;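 also: binding of chimeric antibodies to plate-bound antigen, read by TMB colour after acid stop, antibody incubated 2 h at 37 °C, negative control antibody run alongside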
T2 construct: also called human MSLN full-length protein; hMSLN-FL-his; not shown: His tag

[3] = target: T3, human MSLN-FL-his protein (human, UniProt Q13421 296-580); assay: SPR (Biacore), antibody captured on Protein A chip;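 also: measured at 25 °C, analyte injected 240 s in five twofold dilutions from 200 nM, dissociation up to 600 s, double-referenced, fitted with Langmuir 1:1 model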
T3 construct: made in HEK293E cells, purified on nickel column; also called hMSLN-FL-his; human MSLN full-length protein; not shown: His tag
T3 sequence (Q13421 other isoform, or with tags, fused parts or gaps): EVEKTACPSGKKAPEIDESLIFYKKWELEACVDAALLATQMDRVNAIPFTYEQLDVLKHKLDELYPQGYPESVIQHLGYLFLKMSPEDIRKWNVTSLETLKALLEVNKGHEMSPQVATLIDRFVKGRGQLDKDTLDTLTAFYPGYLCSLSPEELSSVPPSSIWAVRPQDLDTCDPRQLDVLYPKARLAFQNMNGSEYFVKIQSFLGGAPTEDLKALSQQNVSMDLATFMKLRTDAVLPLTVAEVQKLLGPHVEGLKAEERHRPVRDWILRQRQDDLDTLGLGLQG

OD450 at 0.0001 nM [1] [OD450]	OD450 at 0.001 nM [1] [OD450]	OD450 at 0.01 nM [1] [OD450]	OD450 at 0.1 nM [1] [OD450]	OD450 at 1 nM [1] [OD450]	OD450 at 10 nM [1] [OD450]	OD450 at 100 nM [1] [OD450]	OD450 at none (no antibody) [1] [OD450]	OD450 at 0.0001 nM [2] [OD450]	OD450 at 0.001 nM [2] [OD450]	OD450 at 0.01 nM [2] [OD450]	OD450 at 0.1 nM [2] [OD450]	OD450 at 1 nM [2] [OD450]	OD450 at 10 nM [2] [OD450]	OD450 at 100 nM [2] [OD450]	OD450 at none (no antibody) [2] [OD450]	Kd [3] [µM]	koff [3] [s⁻¹]	kon [3] [M⁻¹ s⁻¹]	Binder
0.05	0.05	0.06	0.05	0.05	0.05	0.06	0.06	0.05	0.06	0.24	1.27	2.21	2.5	2.72	0.06	–	–	–	S009-F2.23.12 (antibody, human IgG1, kappa, V domains shown, Human-murine chimeric antibody, human IgG1/kappa constant regions) VH: QVQLQQPGTELVKPGASVKLSCKASGYTFTNYWMHWVKQRPGQGLEWIGNINPSNGGPYYNERFRSKATLTVDKSSSTAYMQLSSLTSEDSAVYYCARPYYGSSYGYFDYWGQGTTLTVSS VL: DIQMTQSPSSLSASLGGKVTITCKASQDINKYIAWYQHKPGKGPRLLIHYTSELQPGIPSRFSGNGSGRDYSFSISNLEPEDIATYYCLQYANPLRTFGGGTKLEIKR
–	–	–	–	–	–	–	–	–	–	–	–	–	–	–	–	0.186	0.00067	3600	S009-F1.25.10 (antibody, human IgG1, kappa, V domains shown, human-murine chimeric antibody, human IgG1/kappa constant regions) VH: EVQLQQSGPELVKPGASLKISCKASGYSFTDYTMNWVKQSHGKNLEWIGLFNPYNGGISYNQKFKGKATLTVDKSSNTAYMELLSLTSDDSAVYFCARDGRGGFYAMDYWGQGTSVTVSS VL: DIQMTQTTSSLSASLGDRVTISCRASQDISIYLNWYQQKPDGPVKLLIYYTSRLHSGVPSRFSGSGSGTDFSLTISNLEQEDIATYFCQQGYTLPPWTFGGGTKLEIKR
0.05	0.05	0.05	0.05	0.09	0.23	0.36	0.06	0.06	0.1	0.45	1.78	2.31	2.4	2.57	0.06	–	–	–	S009-F2.47.1 (antibody, human IgG1, kappa, V domains shown, Human-murine chimeric antibody, human IgG1/kappa constant regions) VH: QVQLQQPGAELVKPGASVKLSCKASGYTFTSYWMHWVKQRPGQGLEWIGMIHPNSGSTNYNEKFKSKATLTVDKSSSTAYMQLSSLTSEDSAVYYCARPVVPYWYFDVWGTGTTVTVSS VL: DIVMTQSQKFMSTTVGDRVSITCKASQNVGTAVAWYQQKPGQSPKLLIYSASNRYTGVPDRFTGSGSGTDFTLTISNMQSEDLADYFCQQSSSYPLTFGAGTKLELKR
–	–	–	–	–	–	–	–	–	–	–	–	–	–	–	–	0.0308	0.0109	354000	S009-F2.38.12 (antibody, human IgG1, kappa, V domains shown, human-murine chimeric antibody, human IgG1/kappa constant regions) VH: QVQLQQPGTELVKPGASVKLSCKASGYTFTSYWMHWVKQRPGQGLEWIGNINPSNGGTNYNEKIKNKATLTVDKSSSTAYMQLSSLTSEDSAVYYCARWNYYGNYPFDYWGQGTTLTVSS VL: DIVMTQSQKFMSTTVGDRVSITCKASQNVGTAVAWYQQKPGQSPKLLIYSASNRYTGVPDRFTGSGSGTDFTLTISNMQSEDLADYFCQQYSSYPLTFGAGTKLELKR
–	–	–	–	–	–	–	–	–	–	–	–	–	–	–	–	0.0128	0.00709	553000	S009-F1.7.14 (antibody, human IgG1, kappa, human-murine chimeric antibody, human IgG1/kappa constant regions) heavy: not shown light: QIVLTQSPAIMSASPGEKVTISCSASSSVSYMYWYQQKPGSSPKPWISRTSNLASGVPARFSGSGSGTSYSLTISSMEAEDAATYYCQQYHSYPPTLGAGTKLELKRTVAAPSVFIFPPSDEQLKSGTASVVCLLNNFYPREAKVQWKVDNALQSGNSQESVTEQDSKDSTYSLSSTLTLSKADYEKHKVYACEVTHQGLSSPVTKSFNRGEC
0.05	0.05	0.05	0.05	0.05	0.06	0.07	0.06	0.05	0.05	0.08	0.42	1.57	2.37	2.53	0.06	–	–	–	S009-F2.39.3 (antibody, human IgG1, kappa, V domains shown, Human-murine chimeric antibody, human IgG1/kappa constant regions) VH: QVQLQQPGTELVKPGASVKLSCKASGYTFTNYWMHWVKQRPGQGLEWIGNINPSSGDSYYNERFMSKAKMTVDKSSSTAYMQLSSLTSEDSAVYYCARSGGLWLAFWGPGTLVTVSA VL: DIVMTQSPSSLAMSVGQKVTMSCKSSQTLLNSVSQNNYLAWYQQKPGQSPTLLVYFASTRESGVPDRFIGGGSGTDFTLTISSVQAEDLADYFCQQHYRTPYTFGGGTNLEIKR

Further lines, the binder ahead of its results:

Binder	OD450 at 0.0001 nM [1] [OD450]	OD450 at 0.001 nM [1] [OD450]	OD450 at 0.01 nM [1] [OD450]	OD450 at 0.1 nM [1] [OD450]	OD450 at 1 nM [1] [OD450]	OD450 at 10 nM [1] [OD450]	OD450 at 100 nM [1] [OD450]	OD450 at none (no antibody) [1] [OD450]	OD450 at 0.0001 nM [2] [OD450]	OD450 at 0.001 nM [2] [OD450]	OD450 at 0.01 nM [2] [OD450]	OD450 at 0.1 nM [2] [OD450]	OD450 at 1 nM [2] [OD450]	OD450 at 10 nM [2] [OD450]	OD450 at 100 nM [2] [OD450]	OD450 at none (no antibody) [2] [OD450]	Kd [3] [µM]	koff [3] [s⁻¹]	kon [3] [M⁻¹ s⁻¹]
S009-F2.21.4 (antibody, human IgG1, kappa, V domains shown, Human-murine chimeric antibody, human IgG1/kappa constant regions) VH: EVQLQQSGPELVKPGASVKIPCKASGYTFTDYNMDWVKQSHGKSLEWIGDINPNNGGSIYNQRFKGKATLTVDKSSSTAYMELRSLTSEDSAVYYCARRAYYSTGYFDVWGTGTTVTVSS VL: QIVLTQSPALMSASPGEKVTITCSASSSISYMHWFQQKPGTSPKLWIYSTSTLASGVPARFSGSGSGTSYSLTISRMEAEDTATYYCQQRSSYPPTFGGGTKLEIKR	0.05	0.05	0.05	0.05	0.05	0.05	0.06	0.06	0.05	0.09	0.41	1.93	2.46	2.56	2.95	0.06	–	–	–
S009-F2.21.4 (antibody, human IgG1, kappa, V domains shown, human-murine chimeric antibody, human IgG1/kappa constant regions) VH: EVQLQQSGPELVKPGASVKIPCKASGYTFTDYNMDWVKQSHGKSLEWIGDINPNNGGSIYNQRFKGKATLTVDKSSSTAYMELRSLTSEDSAVYYCARRAYYSTGYFDVWGTGTTVTVSS VL: QIVLTQSPALMSASPGEKVTITCSASSSISYMHWFQQKPGTSPKLWIYSTSTLASGVPARFSGSGSGTSYSLTISRMEAEDTATYYCQQRSSYPPTFGGGTKLEIKR	–	–	–	–	–	–	–	–	–	–	–	–	–	–	–	–	0.0291	0.0227	780000
S009-F2.13.3 (antibody, human IgG1, kappa, V domains shown, Human-murine chimeric antibody, human IgG1/kappa constant regions) VH: QVQLQQSGAELMKPGASVKLSCKATGYTFTGYWIEWVKQRPGHGLEWIGEILPGSGSTNYNEKFKGKATFTADTSSNTAYMQLSSLTTEDSAIYYCARAGAWFAYWGQGTLVTVSA VL: QIVLTQSPAIMSASLGERVTMTCTASSSVSSSYLHWYQQKPGSSPKLWTYSTSNLASGVPARFSGSGSGTSYSLTISSMEAEDAATYYCHQYHRSPWTFGGGTKLEIKR	0.05	0.05	0.05	0.05	0.05	0.05	0.06	0.06	0.06	0.08	0.26	1.3	2.08	2.37	2.77	0.06	–	–	–
S009-F1.62.9 (antibody, human IgG1, kappa, V domains shown, human-murine chimeric antibody, human IgG1/kappa constant regions) VH: EVQLQQSGADLVKPGASVKLSCTVFGLNFKDTFMHWVRQRPEQGLEWIGRIDPANDNSIYGPKFQDKATITADTSSNTAYLHLSSLTSEDTAVYYCLYFDNWGHGTTLTVSS VL: DIVMTQAASSEPVTPGESVSISCRSDKSLLHSNGHNYLYWFLQRPGQSPHLLIYRMSNLASGVPDRFSGSGSGTAFTLRISRVEAEDVGVYYCMQHLEYPLTFGAGTKLELKR	–	–	–	–	–	–	–	–	–	–	–	–	–	–	–	–	0.745	0.000348	467
S009-F2.16.10 (antibody, human IgG1, kappa, V domains shown, Human-murine chimeric antibody, human IgG1/kappa constant regions) VH: QVQLQQPGAELIKPGASVKLSCKASGYTFTSYWMHWVKQRPGQGLEWIGIIHPNIGSTNYNERFKSKATLTVDKSSSTAYMQLSSLTSEDSAVYYCARRSSNYGDWYFDVWGTGTTVTVSS VL: DIVMTQSHRFMSTSVGDRVSITCKASQDVGTSVAWYQQKPGQSPKLLIYWASTQHTGVPDRFTGSGSGTDFTLTINNVQSEDLLDYFCQQYSSYPLTFGAGTKLELKR	0.05	0.06	0.09	0.44	0.94	1.62	2.03	0.06	0.05	0.09	0.41	1.71	2.22	2.4	2.92	0.06	–	–	–
S009-F2.17.3 (antibody, human IgG1, kappa, V domains shown, Human-murine chimeric antibody, human IgG1/kappa constant regions) VH: QVQLQQPGTELVTPGASVKLSCKASGYSFTSYWMHWVKQRPGQGLEWIGNINPSNGDTFYNEKFKNKATLTVDKSSSTAYMQLSSLTSEDSAVYYCARGWLRDYWGQGTTLTVSS VL: not shown	0.05	0.05	0.04	0.05	0.04	0.06	0.07	0.06	0.05	0.06	0.13	0.64	1.93	2.48	2.81	0.06	–	–	–
S009-F1.59.1 (antibody, human IgG1, kappa, V domains shown, human-murine chimeric antibody, human IgG1/kappa constant regions) VH: EVKLEGSGGGLVQPGGSMMLSCVATGFTFSSYWMNWVRQSPDRGLEWVAEIRLKSNGFAAFYAESVKGRFTISRDDSKSSVYLQMNNLRTEDTGIYYCTYFVHWGQGILVTVSE VL: DIVLTQSPTSLAVSLGQRATISCRTSESVEYFGTILIQWYQQKPGQPPKLLIFGASNVESGVPARFSGSGSGTDFSLNIHPVEEEDIAMYFCQQNRKVPYTFGGGTTLELKR	–	–	–	–	–	–	–	–	–	–	–	–	–	–	–	–	0.563	0.000922	1640
